Conditions in all cases: both partners purified
Experiment [1] deals with T1, horse albumin (Equus caballus, UniProt P35747).
Experiment [2] concerns the target T2, natural protein of Sus scrofa P08835 (Sus scrofa, UniProt P08835).
T2 construct: also called Sw

Experiment [3] deals with T3, cat albumin (Felis catus, UniProt P49064).
Experiment [4] has as its target T1, horse albumin. In words: ELISA; […], pH 7.4); room temperature; […]. A general note: ELISA stands for enzyme-linked immunosorbent assay.
The target of the next experiment is sheep albumin (Ovis aries, UniProt P14639). In words: ELISA; […], pH 7.4); room temperature; […].
Chain of sheep albumin (P14639 25-607): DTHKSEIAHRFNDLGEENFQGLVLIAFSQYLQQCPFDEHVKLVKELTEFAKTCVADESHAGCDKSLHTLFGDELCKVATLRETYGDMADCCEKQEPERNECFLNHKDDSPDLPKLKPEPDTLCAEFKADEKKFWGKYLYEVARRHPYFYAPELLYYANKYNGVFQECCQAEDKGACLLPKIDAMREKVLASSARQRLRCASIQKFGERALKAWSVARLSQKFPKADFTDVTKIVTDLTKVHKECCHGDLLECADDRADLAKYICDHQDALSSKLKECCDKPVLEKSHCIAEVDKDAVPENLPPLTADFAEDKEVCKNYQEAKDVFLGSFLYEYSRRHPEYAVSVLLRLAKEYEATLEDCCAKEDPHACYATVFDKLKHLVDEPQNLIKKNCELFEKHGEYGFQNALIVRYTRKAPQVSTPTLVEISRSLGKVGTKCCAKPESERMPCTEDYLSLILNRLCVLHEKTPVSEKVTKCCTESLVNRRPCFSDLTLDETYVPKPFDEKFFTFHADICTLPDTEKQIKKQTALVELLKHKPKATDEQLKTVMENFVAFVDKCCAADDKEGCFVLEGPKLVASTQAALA
Another experiment addresses chicken ovalbumin (Gallus gallus, UniProt P01012). In words: ELISA; […], pH 7.4); room temperature; […].
The target in another experiment is T4, human albumin (Homo sapiens, UniProt P02768).
T4 construct: also called HSA
T4 sequence (P02768 25-609): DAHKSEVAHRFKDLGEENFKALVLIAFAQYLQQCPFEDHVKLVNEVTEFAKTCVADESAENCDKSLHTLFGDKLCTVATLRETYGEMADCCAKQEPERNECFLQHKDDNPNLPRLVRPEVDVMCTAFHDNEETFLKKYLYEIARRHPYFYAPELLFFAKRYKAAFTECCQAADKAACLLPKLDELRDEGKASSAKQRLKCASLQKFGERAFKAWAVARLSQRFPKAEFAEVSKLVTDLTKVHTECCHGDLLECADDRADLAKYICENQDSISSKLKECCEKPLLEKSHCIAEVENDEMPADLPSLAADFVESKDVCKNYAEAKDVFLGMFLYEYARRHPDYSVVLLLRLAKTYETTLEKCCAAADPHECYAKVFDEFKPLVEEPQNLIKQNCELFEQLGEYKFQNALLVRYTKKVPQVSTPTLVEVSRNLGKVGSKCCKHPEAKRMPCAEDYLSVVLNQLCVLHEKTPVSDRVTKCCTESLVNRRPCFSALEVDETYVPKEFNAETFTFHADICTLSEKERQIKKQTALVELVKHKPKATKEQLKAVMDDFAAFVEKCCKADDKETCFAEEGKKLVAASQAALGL
In words: ELISA; […], pH 7.4); room temperature; […].

A further experiment deals with mouse albumin (Mus musculus, UniProt P07724). As to the kind of experiment: ELISA; […], pH 7.4); room temperature; […].
Chain of mouse albumin (P07724 25-608): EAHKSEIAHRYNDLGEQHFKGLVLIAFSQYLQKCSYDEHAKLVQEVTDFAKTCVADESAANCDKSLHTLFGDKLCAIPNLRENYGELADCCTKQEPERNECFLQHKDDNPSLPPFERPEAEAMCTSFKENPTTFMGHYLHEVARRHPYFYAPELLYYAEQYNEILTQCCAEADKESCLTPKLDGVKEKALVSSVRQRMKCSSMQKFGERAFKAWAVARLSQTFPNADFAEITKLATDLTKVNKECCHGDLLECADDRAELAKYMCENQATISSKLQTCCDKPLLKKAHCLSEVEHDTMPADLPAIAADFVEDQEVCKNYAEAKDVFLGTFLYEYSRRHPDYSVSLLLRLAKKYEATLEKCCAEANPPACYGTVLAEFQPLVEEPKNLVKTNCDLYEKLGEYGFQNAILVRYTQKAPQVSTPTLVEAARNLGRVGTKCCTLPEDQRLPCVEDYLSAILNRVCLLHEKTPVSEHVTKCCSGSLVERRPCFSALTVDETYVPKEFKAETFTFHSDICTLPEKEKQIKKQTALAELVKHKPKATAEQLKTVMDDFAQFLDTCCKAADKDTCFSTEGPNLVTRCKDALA
Experiment [5] concerns the target T2, natural protein of Sus scrofa P08835. In words: ELISA; […], pH 7.4); room temperature; […].
A further experiment addresses bovine albumin (Bos taurus, UniProt P02769). In words: ELISA; […], pH 7.4); room temperature; […].
In experiment [6] the target is T3, cat albumin. As to the kind of experiment: ELISA; […], pH 7.4); room temperature; […].

T3 sequence (P49064 25-608): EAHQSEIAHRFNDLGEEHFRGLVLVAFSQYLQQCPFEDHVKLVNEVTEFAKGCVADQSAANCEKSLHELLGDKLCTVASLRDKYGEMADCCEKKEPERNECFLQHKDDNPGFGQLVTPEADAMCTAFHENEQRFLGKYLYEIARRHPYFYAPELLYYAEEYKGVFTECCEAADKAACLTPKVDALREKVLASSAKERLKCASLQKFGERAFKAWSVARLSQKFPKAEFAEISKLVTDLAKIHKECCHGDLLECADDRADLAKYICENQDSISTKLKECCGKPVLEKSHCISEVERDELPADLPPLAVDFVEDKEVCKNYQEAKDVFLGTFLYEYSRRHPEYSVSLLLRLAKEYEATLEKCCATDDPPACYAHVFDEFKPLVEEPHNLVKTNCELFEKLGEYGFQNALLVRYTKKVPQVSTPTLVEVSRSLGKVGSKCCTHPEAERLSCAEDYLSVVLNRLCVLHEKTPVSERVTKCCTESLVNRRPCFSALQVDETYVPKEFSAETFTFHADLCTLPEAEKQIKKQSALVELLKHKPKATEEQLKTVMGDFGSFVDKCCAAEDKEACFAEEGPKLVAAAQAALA
T2 sequence (P08835 25-607, one chain of several): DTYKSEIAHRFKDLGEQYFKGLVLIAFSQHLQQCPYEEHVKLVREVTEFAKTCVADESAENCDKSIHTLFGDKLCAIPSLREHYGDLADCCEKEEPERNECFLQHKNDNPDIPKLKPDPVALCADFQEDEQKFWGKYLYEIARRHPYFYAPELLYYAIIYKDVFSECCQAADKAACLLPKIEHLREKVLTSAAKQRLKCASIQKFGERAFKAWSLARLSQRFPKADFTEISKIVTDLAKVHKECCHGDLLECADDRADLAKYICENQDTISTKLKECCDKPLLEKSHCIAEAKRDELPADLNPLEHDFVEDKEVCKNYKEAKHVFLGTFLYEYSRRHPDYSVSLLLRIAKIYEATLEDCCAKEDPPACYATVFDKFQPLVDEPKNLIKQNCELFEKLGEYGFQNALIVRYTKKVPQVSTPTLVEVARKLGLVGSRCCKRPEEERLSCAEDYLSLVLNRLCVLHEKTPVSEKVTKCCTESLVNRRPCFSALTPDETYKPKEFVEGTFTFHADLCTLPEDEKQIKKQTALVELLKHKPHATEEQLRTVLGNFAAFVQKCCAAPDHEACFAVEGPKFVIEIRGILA
T1 sequence (P35747 25-607): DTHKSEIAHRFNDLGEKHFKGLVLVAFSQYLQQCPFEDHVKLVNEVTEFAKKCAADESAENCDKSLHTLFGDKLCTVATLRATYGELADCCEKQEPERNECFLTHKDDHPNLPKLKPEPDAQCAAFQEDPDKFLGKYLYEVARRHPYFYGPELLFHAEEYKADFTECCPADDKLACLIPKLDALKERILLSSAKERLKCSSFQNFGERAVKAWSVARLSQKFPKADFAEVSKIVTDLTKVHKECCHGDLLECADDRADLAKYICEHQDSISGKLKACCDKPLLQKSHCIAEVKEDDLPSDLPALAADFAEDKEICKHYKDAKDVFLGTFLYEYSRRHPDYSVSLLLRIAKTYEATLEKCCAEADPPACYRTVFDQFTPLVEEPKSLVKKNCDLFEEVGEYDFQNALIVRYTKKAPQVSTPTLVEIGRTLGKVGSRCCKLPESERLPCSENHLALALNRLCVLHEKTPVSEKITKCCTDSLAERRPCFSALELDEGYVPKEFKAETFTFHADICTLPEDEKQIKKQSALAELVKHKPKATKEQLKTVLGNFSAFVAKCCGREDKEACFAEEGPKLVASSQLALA
Chain of bovine albumin (P02769 25-607): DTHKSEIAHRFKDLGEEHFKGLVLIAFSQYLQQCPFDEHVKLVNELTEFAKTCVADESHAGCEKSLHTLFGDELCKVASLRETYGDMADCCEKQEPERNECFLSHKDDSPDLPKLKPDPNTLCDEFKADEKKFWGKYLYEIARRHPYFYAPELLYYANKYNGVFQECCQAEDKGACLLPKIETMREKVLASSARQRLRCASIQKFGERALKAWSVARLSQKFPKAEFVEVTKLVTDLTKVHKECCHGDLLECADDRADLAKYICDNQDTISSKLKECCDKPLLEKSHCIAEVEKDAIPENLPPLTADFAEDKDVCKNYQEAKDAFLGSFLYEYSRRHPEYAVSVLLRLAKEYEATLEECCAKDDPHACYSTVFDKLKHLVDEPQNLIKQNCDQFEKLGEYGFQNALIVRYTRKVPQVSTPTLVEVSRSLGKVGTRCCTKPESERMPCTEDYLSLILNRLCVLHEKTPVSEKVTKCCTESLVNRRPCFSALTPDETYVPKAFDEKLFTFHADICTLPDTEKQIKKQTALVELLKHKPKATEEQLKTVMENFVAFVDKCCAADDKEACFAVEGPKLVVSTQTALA
Chain of chicken ovalbumin (P01012 whole entry): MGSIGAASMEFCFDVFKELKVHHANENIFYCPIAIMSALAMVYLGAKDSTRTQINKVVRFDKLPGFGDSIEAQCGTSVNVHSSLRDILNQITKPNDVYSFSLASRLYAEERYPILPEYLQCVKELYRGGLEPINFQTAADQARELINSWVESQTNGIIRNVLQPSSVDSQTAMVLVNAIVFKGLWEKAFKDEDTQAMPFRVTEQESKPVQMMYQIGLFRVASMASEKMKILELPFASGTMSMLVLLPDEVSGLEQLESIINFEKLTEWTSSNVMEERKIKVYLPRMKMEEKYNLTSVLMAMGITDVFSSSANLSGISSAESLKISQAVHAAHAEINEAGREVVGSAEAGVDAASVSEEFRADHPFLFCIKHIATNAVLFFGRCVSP

B1: A12L (VHH)
VHH: QVQLQESGGGLVQAGGSLRLSCAASGRTFSYYPMAWFRQAPGQEREFVAAIIGADTTYYADSLKGRFTISRDNAKNMVYLQMNSLKPEDTAVYYCAARNTYWSDVYYREGQYTNWGQGTQVTVSS
notes: also called sdAb A12
For orientation: Kd means the concentration at which binding is half-saturated. A word on the koff: it is the rate constant with which the complex falls apart. The low end stands for a long-lived complex, the high end for a short-lived complex. Regarding B1, the Kd worked out at 13 nM with horse albumin [1], 189 nM in [2] and 31 nM with cat albumin [3]. Further, the koff in the experiment with horse albumin [1] amounted to 0.00115 s⁻¹; in [2] it was 0.0249 s⁻¹; with cat albumin [3], 0.00082 s⁻¹.

B2: A6L (VHH)
VHH: QVQLQESGGRLVQAEDSLRLSCAASGRTFVSYDMGWFRQAPGKEREFVAAINWRGYTTDYVDSVKGRFFISRDIAKSTVYLQMNNLKPEDTAVYYCAARQMSGSSRYSPPGRVGYDFWGQGTQVTVSS
notes: also called sdAb A6
Take B2: the values for the Kd with horse albumin [1] and with cat albumin [3] were 13 nM and 1.2 nM, respectively. For the same molecule, the values for the koff with horse albumin [1] and in the experiment with cat albumin [3] were 0.00966 s⁻¹ and 0.00087 s⁻¹, respectively.

B3: A2L (VHH)
VHH: QVQLQQSGGGLVQAGGSLRLSCAASGRFFSRQVMGWFRQAPGKDREFVGVISWDNGVTFYSDSVKGRFTMSREIAKKTVHLQMNSLKPEDTAVYYCAAGNALHSRYYSPSKYDYWGPGTQVTVSS
notes: also called sdAb A2
For the molecule B3, the binding result in the experiment with horse albumin [4] was “binds”.

B4: A16L (VHH)
VHH: QVQLQESGGGVVQAGGSLRLSCAASGRTVSSSAMGWFRLAPGKEREFVVGISRSGGSIFYADSVKGRFTISRKNAKNTVDLQMNSLKPEDTAVYYCAAGYRPGYGDYGRVFYREDEYDDWGQGTQVTVSS
notes: also called sdAb A16
In the experiment with horse albumin [1], B4 yielded a Kd of 11 nM and a dissociation rate constant (koff) of 0.00242 s⁻¹.

B5: A7L (VHH)
VHH: QVQLQQSGGGLVQAGDSLRLSCAASGRAFNYYTMGWFRQAPGKEREFVAKIYWDGGSTIYADSVKGRFTISIDNAKNTVYLQMNSLKPEDTAVYYCAADPSFYPFRPKYWGQGTQVTVSS
notes: also called sdAb A7
For B5, the binding result with horse albumin [4] is given as “binds”; with sheep albumin, “no binding (tested: 1 µg/ml sdAb)”; with chicken ovalbumin it was “no binding (tested: 1 µg/ml sdAb)”; with human albumin it was “no binding (tested: 1 µg/ml sdAb)”; with mouse albumin it was “no binding (tested: 1 µg/ml sdAb)”; in experiment [5], “no binding (tested: 1 µg/ml sdAb)”. For the same molecule, the binding result with bovine albumin and with cat albumin [6] was “no binding (tested: 1 µg/ml sdAb)” each time.

For the origin of these results see paper PMC10862077 (Frontiers in Immunology, 2024).
